Measurements from patent publication US20240209095A1 (published 2024).

Target: PDL1-hFc (UniProt Q9NZQ7 19-238)
Experiment: ELISA

Sequence of PDL1-hFc (Q9NZQ7 19-238): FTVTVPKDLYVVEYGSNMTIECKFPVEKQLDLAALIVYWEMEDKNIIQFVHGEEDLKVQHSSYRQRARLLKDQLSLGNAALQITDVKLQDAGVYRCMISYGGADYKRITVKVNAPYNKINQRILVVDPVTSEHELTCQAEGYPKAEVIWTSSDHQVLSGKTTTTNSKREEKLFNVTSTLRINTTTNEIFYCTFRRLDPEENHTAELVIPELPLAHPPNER

B1: mouse-human chimera 3C3 MM (antibody, V domains shown)
VH: EVQLQESGPGLTKPSQTLSLTCSVTGYSITSDYWDWIRKFPGNKLEYMGYISYTGSTYYNPSLRSRISITRDTSKNQYYLQLSSVTSEDSATYYCARRGGWLSPFVYWGQGTLVTVSA
VL: DTVMSQSPSSLGVSVGERVTLTCKSRQSLLFSSNQKNSLAWYQQKPGQSPKLLIYWASTRESGVPDRFTGSGSGTDFTLTISSVKSEDLAVYYCQQYYTYPFTFGAGTSLELK
  Kd: 0.0666 nM
